This assay addresses vps35_mouse Vps35 (UniProt Q9EQH3).
On to “Vacuolar protein sorting-associated protein 29 (Mus musculus) (from UniProt Q9QZ88-1) I91S”, for which the “effect of a mutation on the interaction” value is given as “disrupting interaction strength”.
The same measure for “Vacuolar protein sorting-associated protein 29 (Mus musculus) (from UniProt Q9QZ88-1) N39D”: “decreasing interaction strength”; for “Vacuolar protein sorting-associated protein 29 (Mus musculus) (from UniProt Q9QZ88-1) V90D”: “decreasing interaction strength”.

These data come from IntAct's records for PubMed 15965486.
